± gives the uncertainty stated by the source.
experiment: amyloid nucleation score (Sup35N fusion, yeast selection) (log enrichment); library NNK2; higher = more nucleation; inactive = no reads after selection
Summary of the method: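 The nucleation score is a DiMSum log enrichment of output over input reads, centred on the mode score of non-aggregating sequences. Sequences under 100 input reads were excluded, and reads came from Illumina sequencing of plasmid inserts. Psi-negative yeast expressing Sup35N fused to peptides of 20 random codons were induced with 100 μM copper sulfate for 24 hours and grown 7 days at 30°C on medium lacking adenine and uracil. Random libraries had three technical output replicates.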

In the case of EGLIDCCIH, the amyloid nucleation score is reported as “inactive”.
In the case of EILYFSTAFYLSTWEDTIFT, the amyloid nucleation score is reported as “inactive”.
For EKHWSFFTGMSVSHRLFRQN, the amyloid nucleation score was “inactive”.
For ERLRSLKDNIMNFCKSRLGL, the amyloid nucleation score was “inactive”.
In the case of ERTCSIRDPNRDIPGFPFSY, the amyloid nucleation score is reported as “inactive”.
In the case of ESIGVINCYWIWATSIPLEG, the amyloid nucleation score is reported as “inactive”.
For ESILKHSMPSYGFFLF, the amyloid nucleation score was “inactive”.
With ETHIITCLRYRRRMARPHRY the amyloid nucleation score was “inactive”.
In the case of FAFIYVIT, the amyloid nucleation score is reported as “inactive”.

Point of comparison: EKRNVVVHLIGRWSTTLYWV, amyloid nucleation score 1.25 ± 0.49. Against it:
- EGQSGAILGLMRGTSWVESA — within error, 0.984 ± 0.32
- EGTIWRVSW — within error, 0.392 ± 0.56
- EHIASLVMNAANSTNPVGQK — lower, -0.339 ± 0.76
- EIFFKCGFLLLGCDRPGRVR — within error, 0.413 ± 0.43
- EIIFVMPVFYIFKTLCLLSA — lower, 0.332 ± 0.16
- EKFESERISFRAMGQGEVLR — higher, 4.61 ± 0.079
- EKGVGL — lower, -0.449 ± 0.5
- ELALGIHYPFNKLYDINKGC — lower, -1.5 ± 0.35
- ELGHDYYSCCGFSAREYMEH — higher, 4.56 ± 0.065
- ELHLFHATPRY — higher, 6.61 ± 0.067
- ELTTIG — within error, 1.62 ± 0.28
- ELVVHFFLFIMGACLHVENQ — lower, -0.368 ± 1
- ELVVPQWGQRRVHDLVCVEP — within error, 1.75 ± 0.29
- ELVYHLSNLKG — lower, -0.381 ± 1.1
- ELYRCA — within error, 0.744 ± 0.22
- EMWSISIKISGR — within error, 0.763 ± 0.57
- EMYRCGWCLWMHNRLTATVR — within error, 1.86 ± 0.28
- ENELSPRGCRGEPLA — within error, 0.536 ± 0.62
- ENEWCCLWGRAKRVAGVQEV — within error, 0.495 ± 0.62
- EPTMVRFDSLFVSDCYMSA — within error, 0.499 ± 0.4
- ERDSGPEYIVCIQVVIYLGM — higher, 3.06 ± 0.052
- ERFPDCCLFNLDVFVSVLNI — higher, 5.022 ± 0.027
- ERGGIYWHVGRFSPDSEVTF — lower, -0.27 ± 0.76
- ERLGSLFNDGQANS — lower, 0.21 ± 0.41
- ERTMF — lower, 0.396 ± 0.3
- ESHFCLLATVMKDNLTVGSM — lower, -0.578 ± 0.45
- ESKVAIA — lower, -0.247 ± 0.24
- ESLWMRTLMNVHYSDFRVTV — lower, -0.174 ± 0.22
- ESPTVCPANF — lower, -0.248 ± 0.65
- ESYCAC — within error, 1.55 ± 0.28
- ESYKCVFRLIDWNIDYILTV — within error, 0.855 ± 0.57
- ETCSAVFIN — lower, 0.041 ± 0.62
- ETESG — within error, 0.72 ± 0.38
- ETMIHTPQELYVMYSPLTQQ — higher, 6.263 ± 0.051
- ETPLTGLRNPSLNQCLMELM — lower, 0.232 ± 0.5
- EVADSRKVSSATWSISSNQR — within error, 1.41 ± 0.4
- EVEIVAWFGLHHSWWH — higher, 3.25 ± 0.08
- EVLTVYFARRFVESSGRGTG — higher, 2.38 ± 0.13
- EVVLFF — lower, -1.35 ± 0.62
- EYCACTFDWWGYQGCCD — lower, -1.04 ± 0.63
- EYFTYVSAVWKSWCTYGGPA — within error, 0.529 ± 0.38
- EYSRVLTGVFLIQSYCKFGN — lower, -0.219 ± 0.2
- EYVRFYLMGISWEAEKSHAL — higher, 4.23 ± 0.11
- FACNLGFMTSSFMRWSNTSA — lower, 0.356 ± 0.33
- FADTKDEGLYFGLMALLLEV — lower, 0.016 ± 0.65
- FAFAINRFCDSRRPVLCYWD — lower, -1.21 ± 1.1
- FAIDMRYVGGQGCCILYIRR — lower, 0.075 ± 0.44
- FAIRYTVMTLFCIRLGLLKV — lower, -0.707 ± 0.27
- FAMRTSKKVSRTTAGGTDPF — lower, -0.696 ± 0.54
- FASALNYTLYWSSSLTLFAL — higher, 2.54 ± 0.067
- FCCSKLAPRTGYYSF — higher, 7.12 ± 0.066
- FCDALQISSYTSENYGIVWS — lower, -0.685 ± 0.36
- FCDFY — lower, -1.2 ± 0.41
- FCGFMGTAPHMRPYVMPWLR — within error, 0.816 ± 0.46

— the supplement of paper PMC12042874
